Experimental data reported in patent US6416987B1, “Mutants of thymidylate synthase and uses thereof” (Sloan Kettering Institute for Cancer Research, priority 1997, dated 2002).
Positions count from the first letter of the chain named. In names and notes the source's numbering stands. Entries after “also recorded” stand apart in the source; their conditions may differ.

B1: G52S: human TS mutant Gly52→Ser (protein)
chain: MPVAGSELPRRPLPPAAQERDAEPRPPHGELQYLGQIQHILRCGVRKDDRTSTGTLSVFGMQARYSLRDEFPLLTTKRVFWKGVLEELLWFIKGSTNAKELSSKGVKIWDANGSRDFLDSLGFSTREEGDLGPVYGFQWRHFGAEYRDMESDYSGQGVDQLQRVIDTIKTNPDDRRIIMCAWNPRDLPLMALPPCHALCQFYVVNSELSCQLYQRSGDMGLGVPFNIASYALLTYMIAHITGLKPGDFIHTLGDAHIYLNHIEPLKIQLQREPRPFPKLRILRKVGKIDDFKAEDFQIEGYNPHPTIKMEMAV
B2: L221I: human TS mutant Leu221→Ile (protein)
chain: B1 chain with S52G, L221I
B3: L221S: human TS mutant Leu221→Ser (protein)
chain: B1 chain with S52G, L221S
B4: R50C: human TS mutant Arg50→Cys (protein)
chain: B1 chain with R50C, S52G
B5: F225Y: human TS mutant Phe225→Tyr (protein)
chain: B1 chain with S52G, F225Y
B6: I108F: human TS mutant Ile108→Phe (protein)
chain: B1 chain with S52G, I108F
B7: L221A: human TS mutant Leu221→Ala (protein)
chain: B1 chain with S52G, L221A
B8: K47E: human TS mutant Lys47→Glu (protein)
chain: B1 chain with K47E, S52G
B9: F225L: human TS mutant Phe225→Leu (protein)
chain: B1 chain with S52G, F225L
B10: T51A: human TS mutant Thr51→Ala (protein)
chain: B1 chain with T51A, S52G
B11: D49N: human TS mutant Asp49→Asn (protein)
chain: B1 chain with D49N, S52G

Each molecule was assayed on Mouse TS-negative cells (FSthy21) (assay: Rescue of TS-negative cells by transfection of human TS cDNAs). Conditions: selective medium lacking thymidine.
Type: cell-based
Source text: Mouse TS-negative cells (FSthy21) were transfected with a plasmid (pcDNA3hTS*) encoding wild-type or a various mutant human TS enzyme by standard DOTAP transfection procedures. The host cells are deficient in TS, which are unable to survive without exogenous thymidine. […] In contrast, cells were unable to survive with transfection of other 11 human TS variants. For each surviving transfectant, at least 12 individual clones were isolated by soft agar or limiting dilution in 96-well plates. Those clones were expanded to cell lines by growth in normal media. Three cell clones for each transfectant were randomly selected for drug sensitivity assay.

Molecule | TS catalytic function / complementation of growth of TS-negative cells
B1 | able to complement growth; also recorded: retain TS catalytic function; also recorded: able to allow growth
B2 | able to complement growth
B3 | able to complement growth
B4 | catalytically inactive
B5 | able to complement growth; also recorded: active enzymes
B6 | able to complement growth; also recorded: functional
B7 | able to complement growth
B8 | able to complement growth; also recorded: retain TS catalytic function; also recorded: able to allow growth
B9 | able to complement growth; also recorded: active enzymes
B10 | not tolerated
B11 | not tolerated

Same assay, conditions: selective medium without thymidine

Molecule | FM3A TS cells surviving by transfection
B1 | yes
B2 | yes
B3 | yes
B4 | no
B5 | yes
B6 | yes
B7 | yes
B8 | yes
B9 | yes
B10 | no
B11 | no
